Consider four molecules from article PMC11275212, “Eukaryotic Pif1 helicase unwinds G-quadruplex and dsDNA using a conserved wedge” (Nature Communications, 2024).

Data set [1] deals with T1, ScPif1 (Saccharomyces cerevisiae Pif1, residues 236–753) (Saccharomyces cerevisiae, UniProt P07271).
T1 construct: helicase core domain, residues 236-753; N-terminal SUMO tag (pET28a) cleaved by Ulp protease; E. coli BL21; monomer on G4 DNA
T1 sequence (P07271 236-753): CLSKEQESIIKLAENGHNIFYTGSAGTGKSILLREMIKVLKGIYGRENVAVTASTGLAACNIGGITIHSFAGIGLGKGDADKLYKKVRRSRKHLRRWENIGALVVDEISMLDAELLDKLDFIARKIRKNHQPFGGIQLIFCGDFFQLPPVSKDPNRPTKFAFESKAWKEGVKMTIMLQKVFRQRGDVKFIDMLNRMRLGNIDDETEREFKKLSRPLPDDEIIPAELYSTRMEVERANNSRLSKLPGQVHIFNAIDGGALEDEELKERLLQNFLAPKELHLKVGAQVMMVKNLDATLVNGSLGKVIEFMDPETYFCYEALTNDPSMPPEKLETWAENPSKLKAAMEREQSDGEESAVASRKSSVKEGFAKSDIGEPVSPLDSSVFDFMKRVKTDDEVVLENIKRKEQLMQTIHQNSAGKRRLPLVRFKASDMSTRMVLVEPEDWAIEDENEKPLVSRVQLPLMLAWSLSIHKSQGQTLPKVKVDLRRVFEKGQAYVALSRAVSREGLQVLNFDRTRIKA
The data set can be described thus: ATP hydrolysis assay. Format: biochemical. The settings on record: ATPase rate only in supplement.

The target in data set [2] is T2, ScPif1 (Saccharomyces cerevisiae, UniProt P07271 236-753).
T2 sequence: T1 sequence (P07271 236-753)
Put plainly: fluorescence anisotropy; no nucleotide; Fluorescence anisotropy: 20 mM HEPES-NaOH pH 7.5, 100 mM NaCl, 10% glycerol, 20 C, 10 nM FAM-DNA, 30 min, quadratic fit. The conditions noted are these: protein: recombinant, tags: N-terminal SUMO tag (Ni-NTA purified), cleaved by Ulp protease, label: 3' 6-FAM.

Data set [3] concerns the target T3, ScPif1 R324E (Saccharomyces cerevisiae, UniProt P07271 236-753, R324E).
T3 sequence: T1 sequence (P07271 236-753) with R89E
The data set is described as above. The conditions noted are these: protein: recombinant; tags: N-terminal SUMO tag, cleaved; label: 3' 6-FAM; parallel intramolecular G4.

The target of data set [4] is T4, ScPif1 R324A (Saccharomyces cerevisiae, UniProt P07271 236-753, R324A).
T4 sequence: T1 sequence (P07271 236-753) with R89A
The description is as above. The settings on record: protein: recombinant; tags: N-terminal SUMO tag, cleaved; label: 3' 6-FAM; parallel intramolecular G4.

The target of data set [5] is T5, ScPif1 R324W (Saccharomyces cerevisiae, UniProt P07271 236-753, R324W).
T5 sequence: T1 sequence (P07271 236-753) with R89W
The data set is described as above. The conditions noted are these: protein: recombinant; tags: N-terminal SUMO tag, cleaved; label: 3' 6-FAM; parallel intramolecular G4.

In data set [6] the target is T6, ScPif1 R324Y (Saccharomyces cerevisiae, UniProt P07271 236-753, R324Y).
T6 sequence: T1 sequence (P07271 236-753) with R89Y
Described as above. The settings on record: protein: recombinant; tags: N-terminal SUMO tag, cleaved; label: 3' 6-FAM; parallel intramolecular G4.

Numbering of substitutions follows the chain as printed.

For `Nc1ncnc2c1ncn2[C@@H]1O[C@H](COP(=O)(O)OP(=O)(O)OP(=O)(O)O)[C@@H](O)[C@H]1O` [ATP], in data set [1], the ATP hydrolysis assay entry is “they hydrolyze ATP at a similar rate to WT ScPif1”.

B1: T7-AT11-FAM (structured_DNA)
DNA: TTTTTTTTGGTGGTGGTTGTTGTGGTGGTGGTGGT
Usually Kd stands for the concentration at which binding is half-saturated. Consider B1, for which the Kd in data set [2] (parallel intramolecular G4 with 5' ssDNA tail) is 7.23 nM.

B2: AT11-FAM (structured_DNA)
DNA: TGGTGGTGGTTGTTGTGGTGGTGGTGGT
For B2, the dissociation constant Kd in data set [3] was 25.6 nM; in data set [4], 11.8 nM; in data set [2] (parallel intramolecular G4), 11.2 nM; in data set [5] it was 9.57 nM; in data set [6], 10.9 nM.

B3: T7-FAM (ssDNA)
DNA: TTTTTTT
With B3, the Kd in data set [2] (single strand) was 12.8 nM.
